Data reported in patent publication US11447574B2.

Biological target: human IL-17A (human) (UniProt Q16552)

Substance: AIN457 (anti-IL-17A antibody by Novartis)
- IC50, picomole, as defined by the cell IL6 test: 1100 picomole
